Laboratory results from patent publication US20260035432A1 (PRECIGEN, published 2026).

Columns and labels:
[1] = molecular target: Extracellular domain (ECD) of ROR1 fused to human Fc region (UniProt Q01973); assay: ROR1-Fc affinity of the construct's binding domain; method not given
[2] = molecular target: Extracellular domain (ECD) of ROR1 fused to human Fc region (UniProt Q01973); assay: SPR, Biacore 3000; ROR1 ECD-human Fc on CM5 chip, antibody in solution; ROR1 ECD-human Fc on the chip per paragraph 451; same number stands under ROR1-His in Table 9
[3] = molecular target: T1, ROR1-His (UniProt Q01973 30-403, limits assumed); assay: ROR1-His affinity of the construct's binding domain; method not given
T1 construct: The construct is described nowhere; not shown: His tag
T1 sequence (Q01973 30-403 limits assumed): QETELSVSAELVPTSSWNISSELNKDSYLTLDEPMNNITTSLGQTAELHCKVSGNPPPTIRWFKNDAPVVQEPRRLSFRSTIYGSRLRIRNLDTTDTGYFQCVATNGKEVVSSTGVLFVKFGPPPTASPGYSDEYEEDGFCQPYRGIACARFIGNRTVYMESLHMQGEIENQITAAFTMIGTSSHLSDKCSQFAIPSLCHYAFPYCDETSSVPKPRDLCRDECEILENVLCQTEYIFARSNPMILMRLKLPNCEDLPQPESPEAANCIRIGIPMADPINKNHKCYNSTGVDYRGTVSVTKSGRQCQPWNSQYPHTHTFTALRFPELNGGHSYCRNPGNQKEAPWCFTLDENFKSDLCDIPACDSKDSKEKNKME

[4] = molecular target: T1, ROR1-His; assay: ROR1-His affinity of the construct's binding domain; method not given; ROR1-His column, not ROR1-Fc (2.31E-08)

Extracellular domain (ECD) of ROR1 fused to human Fc region, sequence (Q01973 30-406 limits assumed): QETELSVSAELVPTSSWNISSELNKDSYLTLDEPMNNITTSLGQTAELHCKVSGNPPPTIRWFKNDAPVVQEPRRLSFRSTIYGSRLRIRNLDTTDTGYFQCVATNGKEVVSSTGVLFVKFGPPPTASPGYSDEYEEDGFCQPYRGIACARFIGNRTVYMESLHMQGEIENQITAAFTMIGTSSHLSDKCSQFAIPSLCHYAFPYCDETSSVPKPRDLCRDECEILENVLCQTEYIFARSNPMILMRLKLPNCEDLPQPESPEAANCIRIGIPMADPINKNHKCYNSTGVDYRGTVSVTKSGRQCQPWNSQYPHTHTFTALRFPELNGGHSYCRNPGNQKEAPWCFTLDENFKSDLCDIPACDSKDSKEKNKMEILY

| Kd [1] | Kd [2] | Kd [3] | Kd [4] | Binder |
| --- | --- | --- | --- | --- |
| 0.193 nM | 0.355 nM | 0.355 nM | – | Hum ROR1_05VH_(G4S)3x_VL_14 (antibody, mouse IgG1, V domains shown, The name reads as an scFv with a (G4S)3 linker; The method text says variable regions were fused to mouse constant regions (chimeric mouse IgG1); VH/VL are tied by the numbers in the name) VH: EVQLVESGGGLVQPGGSLRLSCAASGFTFSSYAMSWVRQAPGKGLEWVSSISRGGTTYYPDSVKGRFTISRDNSKNTLYLQMNSLRAEDTAVYYCGRYDYDGYYAMDYWGQGTLVTVSS VL: DIQMTQSPSSLSASVGDRVTITCKASPDINSYLNWYQQKPGKAPKLLIYRANRLVDGVPSRFSGSGSGTDYTLTISSLQPEDFATYYCLQYDEFPYTFGAGTKVEIK |
| 23.1 nM | – | – | 70.7 nM | Murine ROR1_v2 binding domain (VL and VH of MurineROR1_v2 (VL-VH)) (antibody, V domains shown, also called Murine ROR1_v2 VH; murine ROR1 scFv) VH: EVKLVESGGGLVKPGGSLKLSCAASGFTFSSYAMSWVRQIPEKRLEWVASISRGGTTYYPDSVKGRFTISRDNVRNILYLQMSSLRSEDTAMYYCGRYDYDGYYAMDYWGQGTSVTVSS VL: DVQITQSPSSLYASLGERVTITCKASPDINSYLSWFQQKPGKSPKTLIYRANRLVDGVPSRFSGGGSGQDYSLTINSLEYEDMGIYYCLQYDEFPYTFGGGTKLEMK |
